Columns and labels:
[1] = test system: breast cancer cells expressing ROBO1 (SC-transfected MDA-MB-231/B02); test: Effect of Slit2 on cell migration (96-microwell plates); type: cell-based, human; details: conditioned medium from Slit2-expressing HEK cells; effect seen in SC-transfected cells as opposed to Sh-transfected (ROBO1-silenced) cells
Method: The effects of Slit2, […] (RANKL) and osteoprotegerin (OPG) on cell migration were studied using 96-microwell plates (Millipore). Experiments were carried out essentially as described above with minor modifications. Briefly, inserts were loaded with 75 μl of a cell suspension (2×10^5 cells/ml) and 150 μl of chemoattractant was placed in the lower chamber. The chemoattractant consisted of culture medium containing 0.5% (v/v) fetal calf serum with or without RANKL, OPG or the conditioned medium from Slit2-expressing HEK cells. Remaining of the experiments was as described above.

ROBO1 = test: Confocal microscopy of ROBO1 immunostaining; type: cell-based, human; details: ShRNA-transfected vs scrambled-transfected cells
Method: Confocal microscopy: Subconfluent cell layers were fixed in 4% (w/v) formaldehyde for 30 min, washed three times with PBS and permeabilized for 5 min in PBS containing 0.2% (v/v) Triton-X-100. Permeabilized cells were then incubated with rabbit anti-Robo1 antibody ab7279 (17 μg/ml; AbCam) for 1 h, washed in PBS then incubated with a secondary, FITC-conjugated, anti-rabbit antibody (Sigma). Actin was labeled with phalloidin (Invitrogen) and nuclei were labeled with DAPI. Slides were viewed using confocal microscope Leica TCS-SP2.

ROBO4 mRNA = ROBO4 mRNA expression after ROBO1 silencing; type: cell-based, human; details: ROBO1 silencing in MDA-MB-231/B02 cells
Text: (§1) The small hairpins RNA (siRNA) against human Robo1 were designed with the Promega Si Designer tool. The oligos used were as follows: ShRNA-RB1 forward, 5′-ACCgCAgTACTAAgggAA-CAATAAgTTCTCTATTgTTCCCTTAgTACTgCTTTTTC-3′(SEQ ID NO:1); ShRNA-RB1 reverse, 5′-TgCAgAAAAAgCAg-TACTAAgggAACAATAgAgAACTTATTgTTCCCTT-AgTACTg-3′ (SEQ ID NO:2).
(§2) The shRNAs and corresponding scrambles duplex were synthesized with the psiSTRIKE puromycin kit (Promega) under U6 promoter. MDA-MB-231/B02-Frt11 cells were transfected with the siRNA and scrambles duplex with Transfast Transfection Reagent (Promega), according to the manufacturer's instructions. Selection of the clones was obtained after growing the cells for two weeks in the presence of puromycin (2 μg/ml).
(§3) RNA isolation, reverse transcriptase-polymerase chain reaction (RT-PCR), and quantitative real-time PCR (qPCR): RNA was extracted from cells using the Nucleospin RNA II kit (Macherey-Nagel) and cDNA produced from 2 μg total RNA using the MMLV polymerase Promega. qPCR was performed using SYBR Green qPCR Kit (Finnzymes). Probes were purchased from Invitrogen.

ROBO1 mRNA = test: Quantitative real-time PCR of ROBO1 transcript after ROBO1 silencing; type: cell-based, human; details: clones Sh1.32 and Sh1.33 vs scrambled-transfected SC2.1 and SC2.4 cells
Text: as §1, §2, §3

[2] = test system: MDA-MB-231/B02 human breast cancer cells; test: Scratch wound assay; type: cell-based; details: Sh-transfected vs parental and scrambled-transfected cells; statistically significant
Method: Scratch wound assay: Cells were seeded at a concentration of 1×10^5 cells into 24-well plates and cultured for 24 hours at 37° C. in culture medium containing 10% (v/v) fetal calf serum. After incubation, the culture medium was removed and cells were further cultured in medium containing or not containing 5% (v/v) fetal calf serum, at which time a wound scratch was made on the cell monolayer by using a 20-μl micropipette tip. Cells were fixed, stained with crystal violet, and photographed 24 h later. Alternatively, cell migration was monitored by time-lapse videomicroscopy. Microscopic images were recorded, in a time lapse mode, with a CCD camera attached to a phase contrast microscope (Zeiss Axiovert 200M) and the behaviour of migrating cells was tracked over 24 hours using ImageJ software. Analysis of the images was performed using MetaMorph software.

[3] = test system: MDA-MB-231/B02 human breast cancer cells; test: Cell invasion assay (Matrigel-coated inserts); type: cell-based; details: Sh1.32 and Sh1.33 cells vs scrambled-transfected and parental cells
Method: Cell migration and invasion assays: Cell migration and invasion assays were performed in 24-well cell culture chambers with 8-μm diameter pore-size inserts (Becton Dickinson), as previously described (Zhang et al., Cancer Res., 67:5821-5830, 2007). Inserts were coated with 100-μl basement membrane Matrigel (3 μg/ml; Becton Dickinson) for 90 min at 37° C. in order to perform cell invasion experiments. Cancer cells (1.5×10^5 cells/ml) were re-suspended in DMEM culture medium containing 0.1% (w/v) bovine serum albumin and 300-μl of this cell suspension were loaded into each insert (upper chamber). The chemoattractant [10% (v/v) fetal calf serum] was placed in the lower chamber (750 μl/well). The plates were incubated for 6 h at 37° C. in a 5% CO2 incubator. After incubation, the inserts were collected carefully, the nonmigrating cells were removed and the migrating cells on the under surface of the inserts were fixed and stained with crystal violet. The membranes were mounted on glass slides and cells were counted under microscope.

| Molecule | migration of SC-transfected cells induced by FCS [1] | ROBO1 immunostaining at the plasma membrane (ROBO1) | effect on ROBO4 mRNA expression levels (ROBO4 mRNA) | ROBO1 transcript down regulation (ROBO1 mRNA) [%] | wound closure [2] | invasion [3] |
| --- | --- | --- | --- | --- | --- | --- |
| Slit2: natural ligand of ROBO1; tested as conditioned medium from HEK cells stably expressing human Slit-2 (protein) QCSCSGSTVDCHGLALRSVPRNIPRNTERLDLNGNNITRITKTDFAGLRHLRVLQLMENKISTIERGAFQDLKELERLRLNRNHLQLFPELLFLGTAKLYRLDLSENQIQAIPRKAFRGAVDIKNLQLDYNQISCIEDGAFRALRDLEVLTLNNNNITRLSVASFNHMPKLRTFRLHSNNLYCDCHLAWLSDWLRQRPRVGLYTQCMGPSHLRGHNVAEVQKREFVCSGHQSFMAPSCSVLHCPAACTCSNNIVDCRGKGLTEIPTNLPETITEIRLEQNTIKVIPPGAFSPYKKLRRIDLSNNQISELAPDAFQGLRSLNSLVLYGNKITELPKSLFEGLFSLQLLLLNANKINCLRVDAFQDLHNLNLLSLYDNKLQTIAKGTFSPLRAIQTMHLAQNPFICDCHLKWLADYLHTNPIETSGARCTSPRRLANKRIGQIKSKKFRCSAKEQYFIPGTEDYRSKLSGDCFADLACPEKCRCEGTTVDCSNQKLNKIPEHIPQYTAELRLNNNEFTVLEATGIFKKLPQLRKINFSNNKITDIEEGAFEGASGVNEILLTSNRLENVQHKMFKGLESLKTLMLRSNRITCVGNDSFIGLSSVRLLSLYDNQITTVAPGAFDTLHSLSTLNLLANPFNCNCYLAWLGEWLRKKRIVTGNPRCQKPYFLKEIPIQDVAIQDFTCDDGNDDNSCSPLSRCPTECTCLDTVVRCSNKGLKVLPKGIPRDVTELYLDGNQFTLVPKELSNYKHLTLIDLSNNRISTLSNQSFSNMTQLLTLILSYNRLRCIPPRTFDGLKSLRLLSLHGNDISVVPEGAFNDLSALSHLAIGANPLYCDCNMQWLSDWVKSEYKEPGIARCAGPGEMADKLLLTTPSKKFTCQGPVDVNILAKCNPCLSNPCKNDGTCNSDPVDFYRCTCPYGFKGQDCDVPIHACISNPCKHGGTCHLKEGEEDGFWCICADGFEGENCEVNVDDCEDNDCENNSTCVDGINNYTCLCPPEYTGELCEEKLDFCAQDLNPCQHDSKCILTPKGFKCDCTPGYVGEHCDIDFDDCQDNKCKNGAHCTDAVNGYTCICPEGYSGLFCEFSPPMVLPRTSPCDNFDCQNGAQCIVRINEPICQCLPGYQGEKCEKLVSVNFINKESYLQIPSAKVRPQTNITLQIATDEDSGILLYKGDKDHIAVELYRGRVRASYDTGSHPASAIYSVETINDGNFHIVELLALDQSLSLSVDGGNPKIITNLSKQSTLNFDSPLYVGGMPGKSNVASLRQAPGQNGTSFHGCIRNLYINSELQDFQKVPMQTGILPGCEPCHKKVCAHGTCQPSSQAGFTCECQEGWMGPLCDQRTNDPCLGNKCVHGTCLPINAFSYSCKCLEGHGGVLCDEEEDLFNPCQAIKCKHGKCRLSGLGQPYCECSSGYTGDSCDREISCRGERIRDYYQKQQGYAACQTTKKVSRLECRGGCAGGQCCGPLRSKRRKYSFECTDGSSFVDEVEKVVKCGCTRCVS | inhibited the migration |  |  |  |  |  |
| ShRNA-RB1: small hairpin RNA against human Robo1, SEQ ID NO:1 forward and SEQ ID NO:2 reverse, under U6 promoter (nucleic acid, target site or template, no part of the molecule) sense: ACCGCAGTACTAAGGGAACAATAAGTTCTCTATTGTTCCCTTAGTACTGCTTTTTC antisense: TGCAGAAAAAGCAGTACTAAGGGAACAATAGAGAACTTATTGTTCCCTTAGTACTG |  | totally disappeared | did not affect | 90 | faster wound closure | substantial gain in invasion |
